# Results taken from the supplement of paper PMC10126150.
# ± gives the standard deviation of the averaged measurements.
# System: ATP
# Assay: switch fluorescence ratio, 500 uM ATP over buffer (Cy3 cluster intensity, sum of 5 cycles each) (fold (ratio)); higher = stronger signal-on switching upon ATP binding; sequences stand for … in TCGTCGGCAGCGTCAGATGTGTATAAGAGACAGTTTTTTTTTTTTTTTTTTTTTTTTT…TC
# Conditions: aptamer strand: ATP DNA aptamer (quencher-CACCTGGGGGAGTATTGCGGAGGAAGG + anchor), 100 nM annealed; ATP concentration: 500 uM
# Method in brief: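 Between each of five buffer/ATP cycles, the flow-cell was stripped with NaOH and re-annealed. Each cycle imaged Cy3-labelled switching-strand clusters, annealed to 100 nM quencher-labelled ATP aptamer on a modified Illumina MiSeq flow-cell, first in selection buffer and then after 15 min with 500 uM ATP at 22 °C. The fluorescence ratio is summed target-cycle over summed buffer-cycle Cy3 intensity per cluster, averaged per switch-domain sequence, with clusters outside 100-1000 RFU excluded.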
# 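Also: ATP exposure 15 min at 22 °C before imaging.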
sequence,measurement,value
GGGGGTGGAG,switch fluorescence ratio,1 ± 0.041
GCGATACGCA,switch fluorescence ratio,1.07 ± 0.041
GGGGATGGGT,switch fluorescence ratio,0.999 ± 0.045
GGTTTTTGTT,switch fluorescence ratio,0.991 ± 0.039
GTTTTCGGGG,switch fluorescence ratio,1.04 ± 0.029
CAAATGGGAT,switch fluorescence ratio,0.9951 ± 0.0099
AACGCGAGTA,switch fluorescence ratio,0.986 ± 0.03
CGGAGGAGTA,switch fluorescence ratio,1.03 ± 0.03
TGTTAGGGGG,switch fluorescence ratio,1.01 ± 0.014
TTGTACGCTA,switch fluorescence ratio,1.82 ± 0.73
ATTTGCCCGA,switch fluorescence ratio,1 ± 0.012
AAGAGTTCGT,switch fluorescence ratio,0.955 ± 0.023
ATCACAATTT,switch fluorescence ratio,1.04 ± 0.017
TAGGGGAGCA,switch fluorescence ratio,1.01 ± 0.044
TGGCGCGTAC,switch fluorescence ratio,1.81 ± 0.095
CCGGTACTTT,switch fluorescence ratio,1.05 ± 0.016
CCAGGCAAGG,switch fluorescence ratio,1.18 ± 0.019
AATAGACGAA,switch fluorescence ratio,1.01 ± 0.043
CAATATGAAT,switch fluorescence ratio,1.02 ± 0.0057
ATCTGTTTTT,switch fluorescence ratio,0.972 ± 0.0075
ACAGTCAAGG,switch fluorescence ratio,1.02 ± 0.035
ATCTAGTTTG,switch fluorescence ratio,1.01 ± 0.045
CAGAAAAGCA,switch fluorescence ratio,1.03 ± 0.017
ATGATGGTCC,switch fluorescence ratio,0.9778 ± 0.0014
ATGTTTTGAG,switch fluorescence ratio,0.983 ± 0.043
TGGTCGTGGG,switch fluorescence ratio,1.01 ± 0.032
CTAGGGAGGT,switch fluorescence ratio,0.9701 ± 0.002
GCTGAGGATA,switch fluorescence ratio,0.984 ± 0.013
TAGTGCACGG,switch fluorescence ratio,0.995 ± 0.039
CGTGAGAGTG,switch fluorescence ratio,0.9781 ± 0.0021
TTCTTTTATG,switch fluorescence ratio,1.02 ± 0.021
AGTGGGGGTG,switch fluorescence ratio,1.03 ± 0.043
GCATCGTGCG,switch fluorescence ratio,1.01 ± 0.052
TGGGGGTGCA,switch fluorescence ratio,1.01 ± 0.035
TGGTTTAACA,switch fluorescence ratio,0.9924 ± 0.003
AGTAACGGTG,switch fluorescence ratio,1.034 ± 0.0019
CAGGGCAGCG,switch fluorescence ratio,1.02 ± 0.04
ATGCGGGCCC,switch fluorescence ratio,0.99 ± 0.012
TTGCTTTATT,switch fluorescence ratio,0.987 ± 0.016
TTTAATAATT,switch fluorescence ratio,1.03 ± 0.032
TATAAAGAGG,switch fluorescence ratio,0.987 ± 0.038
GAACTCGGCG,switch fluorescence ratio,1.02 ± 0.031
TGATTAGTCG,switch fluorescence ratio,1.01 ± 0.023
TTGCGAGAGA,switch fluorescence ratio,0.993 ± 0.035
AATCTTGATG,switch fluorescence ratio,0.981 ± 0.03
TTGTCTGTTA,switch fluorescence ratio,1 ± 0.043
GGGAGGGTCT,switch fluorescence ratio,0.975 ± 0.016
TTTAGGGGGT,switch fluorescence ratio,0.991 ± 0.023
TGGGGCTGGT,switch fluorescence ratio,0.99 ± 0.018
CGCGTTCGCT,switch fluorescence ratio,1.025 ± 0.0083
AAGGCACAAG,switch fluorescence ratio,1 ± 0.021
ATAAGACCCG,switch fluorescence ratio,0.98609 ± 0.00056
TGTTAGTTAC,switch fluorescence ratio,1.03 ± 0.025
ACCTTTACGT,switch fluorescence ratio,1.17 ± 0.033
GCTCGGGGGC,switch fluorescence ratio,1.008 ± 0.0081
TGTAGGTAAA,switch fluorescence ratio,0.997 ± 0.029
TTTTTTTT,switch fluorescence ratio,1.04 ± 0.047
GACGGGGCAG,switch fluorescence ratio,0.995 ± 0.015
AGAATGGGTT,switch fluorescence ratio,1.03 ± 0.029
CAGGCGTTAG,switch fluorescence ratio,1 ± 0.064
CGAGTAGAAT,switch fluorescence ratio,1.06 ± 0.065
AAATTCATGT,switch fluorescence ratio,0.996 ± 0.028
TAACCCGGTT,switch fluorescence ratio,0.999 ± 0.042
CGGGGGAGCA,switch fluorescence ratio,1.01 ± 0.017
TCCTTGATTG,switch fluorescence ratio,0.974 ± 0.057
GTAAAAGGGT,switch fluorescence ratio,1 ± 0.02
TCAAGAGGTT,switch fluorescence ratio,1.001 ± 0.01
GGTTGCGGGG,switch fluorescence ratio,0.9855 ± 0.0082
TATAAATGGG,switch fluorescence ratio,1 ± 0.0042
CAGGCCTGAC,switch fluorescence ratio,1.02 ± 0.061
GGTTGAGGCG,switch fluorescence ratio,0.981 ± 0.054
ACTTTCTGGA,switch fluorescence ratio,1 ± 0.024
TTACGGAGGG,switch fluorescence ratio,1.02 ± 0.038
TTTTTGGACG,switch fluorescence ratio,0.969 ± 0.081
CAGGGTGGGG,switch fluorescence ratio,1.03 ± 0.048
AAGCTAAAAT,switch fluorescence ratio,0.996 ± 0.053
CGCTGGGGGG,switch fluorescence ratio,1.02 ± 0.048
CGAGTCCTGT,switch fluorescence ratio,1 ± 0.02
AAGGGGGTGG,switch fluorescence ratio,1.02 ± 0.059
CATCGAGATG,switch fluorescence ratio,1.01 ± 0.014
TAGGAGTAAT,switch fluorescence ratio,1.012 ± 0.0047
GGGGGGGGGT,switch fluorescence ratio,1.01 ± 0.038
TTGAAGTTAG,switch fluorescence ratio,0.99 ± 0.02
GGGTGAGAGG,switch fluorescence ratio,0.9944 ± 0.0075
GCGTATATTA,switch fluorescence ratio,0.998 ± 0.036
ATTGAGGGTT,switch fluorescence ratio,0.985 ± 0.019
GGTTTAATTG,switch fluorescence ratio,1.026 ± 0.0085
AGTACGGTGC,switch fluorescence ratio,1.02 ± 0.017
GTAAGGGGGC,switch fluorescence ratio,0.984 ± 0.011
CACATACATT,switch fluorescence ratio,1.24 ± 0.067
TGTTTAAAAT,switch fluorescence ratio,1.02 ± 0.046
TGGGACAGCG,switch fluorescence ratio,0.957 ± 0.031
TCTTGAATGG,switch fluorescence ratio,0.986 ± 0.0051
TTAGAAATAT,switch fluorescence ratio,1.01 ± 0.016
CAATTGCCCA,switch fluorescence ratio,1.014 ± 0.0079
CAATGTGCAG,switch fluorescence ratio,0.98804 ± 5.9e-06
TCGGTATGAC,switch fluorescence ratio,1.07 ± 0.029
TGAGCCTGCT,switch fluorescence ratio,0.98 ± 0.012
GGGATTTGTG,switch fluorescence ratio,0.972 ± 0.01
ACGGTAGGGC,switch fluorescence ratio,1.03 ± 0.013
TTTCGGGATT,switch fluorescence ratio,1 ± 0.012
ATGACCGGTT,switch fluorescence ratio,1.01 ± 0.046
TTTCTTTGTT,switch fluorescence ratio,1.04 ± 0.096
TTTCGCCCCT,switch fluorescence ratio,1.1 ± 0.062
CAGGATAACT,switch fluorescence ratio,1 ± 0.027
ATAATTAATT,switch fluorescence ratio,0.958 ± 0.03
GCCCTACAAC,switch fluorescence ratio,0.998 ± 0.012
GGTAGGTGTC,switch fluorescence ratio,0.985 ± 0.031
GAAGGCAGGG,switch fluorescence ratio,0.986 ± 0.029
CGCTTTACTA,switch fluorescence ratio,2.21 ± 0.07
TGGGGGTGTA,switch fluorescence ratio,1.05 ± 0.039
GGTGCAACAT,switch fluorescence ratio,1.03 ± 0.051
TTGGTCGCGT,switch fluorescence ratio,1.003 ± 0.0019
TTTGGGAA,switch fluorescence ratio,1.03 ± 0.015
GGGGTTAGGT,switch fluorescence ratio,1.01 ± 0.031
ATCTGAGAGG,switch fluorescence ratio,1.003 ± 0.0031
GTGTATATCG,switch fluorescence ratio,0.991 ± 0.012
ATGGGGTGGC,switch fluorescence ratio,0.9977 ± 0.0017
TGATTGGCTG,switch fluorescence ratio,1.02 ± 0.045
TCCTCTTAAG,switch fluorescence ratio,1.09 ± 0.03
CGCATGTCGA,switch fluorescence ratio,1.03 ± 0.025
TTTTGGGTAC,switch fluorescence ratio,0.995 ± 0.04
CGGGAGGTGC,switch fluorescence ratio,1.02 ± 0.033
TCAGACTGTT,switch fluorescence ratio,1.01 ± 0.013
GCGTATCGCG,switch fluorescence ratio,0.985 ± 0.035
CTATGGCGCA,switch fluorescence ratio,1.03 ± 0.067
AAGGACCCCT,switch fluorescence ratio,1.06 ± 0.026
AAACTGCTCC,switch fluorescence ratio,1.517 ± 0.012
AAGGGTGGTA,switch fluorescence ratio,0.981 ± 0.016
TAAGTCAGCT,switch fluorescence ratio,1 ± 0.032
CTGAGGGGGC,switch fluorescence ratio,1.02 ± 0.016
AAGCGGGGAA,switch fluorescence ratio,1.02 ± 0.03
GGGGAATGTG,switch fluorescence ratio,0.963 ± 0.013
AATTTTCGGA,switch fluorescence ratio,0.991 ± 0.013
TGGGGGTGAG,switch fluorescence ratio,1 ± 0.029
TTTCACTTGG,switch fluorescence ratio,1.03 ± 0.027
GGGATTTGGG,switch fluorescence ratio,0.9745 ± 0.0088
AATCGGGTGC,switch fluorescence ratio,1.05 ± 0.054
GCAAAATTTC,switch fluorescence ratio,1.02 ± 0.085
TTTTCTTTTG,switch fluorescence ratio,1 ± 0.024
AGTAGGGGTA,switch fluorescence ratio,0.974 ± 0.039
AGCGGTCTAT,switch fluorescence ratio,1.021 ± 0.005
TTCCATTTGT,switch fluorescence ratio,1.031 ± 0.0019
TGACGGGGCG,switch fluorescence ratio,1.03 ± 0.05
AAAGGCCCGA,switch fluorescence ratio,1.0084 ± 0.00039
GGGGCTGCGC,switch fluorescence ratio,1.05 ± 0.1
CCTAGGCCCG,switch fluorescence ratio,1.03 ± 0.053
ATTAGGGAAT,switch fluorescence ratio,0.976 ± 0.04
AGTTCGGTTT,switch fluorescence ratio,0.9581 ± 0.0039
TTGTGAATTC,switch fluorescence ratio,0.977 ± 0.043
ATTAAGAGGT,switch fluorescence ratio,1.034 ± 0.0075
CGGGATACGG,switch fluorescence ratio,1.19 ± 0.065
TTATGCAGGG,switch fluorescence ratio,1.01 ± 0.012
CGCTGGCCGG,switch fluorescence ratio,0.972 ± 0.037
GATCGGCGCG,switch fluorescence ratio,0.986 ± 0.025
AAATGTTTCA,switch fluorescence ratio,0.996 ± 0.022
GTTGTGCGGG,switch fluorescence ratio,1.02 ± 0.0089
